The values that follow come from publication PMC12709181.

Assay [1] addresses proliferating cell nuclear antigen (PCNA) (yeast) (UniProt P15873).
Assay [2] has the same target. This is another data set of the same source.

proliferating cell nuclear antigen (PCNA) (yeast), sequence (P15873 whole entry): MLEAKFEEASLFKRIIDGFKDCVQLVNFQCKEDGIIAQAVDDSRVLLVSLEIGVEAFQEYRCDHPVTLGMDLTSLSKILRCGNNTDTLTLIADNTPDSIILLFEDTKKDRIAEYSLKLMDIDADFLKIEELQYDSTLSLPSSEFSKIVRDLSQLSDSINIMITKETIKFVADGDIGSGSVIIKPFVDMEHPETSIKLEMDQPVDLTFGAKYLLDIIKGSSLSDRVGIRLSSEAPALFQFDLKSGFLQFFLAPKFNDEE

In assay [1], “four-subunit yeast Pol ε with the P-domain mutations D695A, E696A, N698A, K745A in Pol2 (DENK) (from UniProt P21951 1-2222; P24482 1-689; P27344 1-201; Q04603 1-196) (complex)” displayed a holoenzyme assay: product length of DNA synthesis on single-primed M13mp18 ssDNA with PCNA loaded by RFC (10 and 20 min); stimulated by PCNA, although to a lesser extent than wild-type Pol ε of 3000 bp. Also, the processivity assay under single-hit conditions: product length on primed M13mp18 ssDNA upon addition of PCNA (0, 5, 10, 20 min); increase comparable to wild type in assay [2] came out at 300 nts.

Consider “four-subunit yeast Pol ε with the P-domain mutation KKRL736-739AAAA in Pol2 (P3) (from UniProt P21951 1-2222; P24482 1-689; P27344 1-201; Q04603 1-196) (complex)”, for which the holoenzyme assay: product length of DNA synthesis on single-primed M13mp18 ssDNA with PCNA loaded by RFC (10 and 20 min); much less stimulation by PCNA in assay [1] amounted to 400 bp. This substance yielded a processivity assay under single-hit conditions: product length on primed M13mp18 ssDNA upon addition of PCNA (0, 5, 10, 20 min) in assay [2] of 85 nts. In assay [2], “wild-type four-subunit yeast DNA polymerase ε (Pol2, Dpb2, Dpb3, Dpb4) (from UniProt P21951 1-2222; P24482 1-689; P27344 1-201; Q04603 1-196) (complex)” registered a processivity assay under single-hit conditions: product length on primed M13mp18 ssDNA upon addition of PCNA (0, 5, 10, 20 min) of 300 nts.
